According to US20030148921:

B1: human single-chain tPA (protein)
chain: SYQVICRDEKTQMIYQQHQSWLRPVLRSNRVEYCWCNSGRAQCHSVPVKSCSEPRCFNGGTCQQALYFSDFVCQCPEGFAGKCCEIDTRATCYEDQGISYRGTWSTAESGAECTNWNSSALAQKPYSGRRPDAIRLGLGNHNYCRNPDRDSKPWCYVFKAGKYSSEFCSTPACSEGNSDCYFGNGSAYRGTHSLTESGASCLPWNSMILIGKVYTAQNPSAQALGLGKHNYCRNPDGDAKPWCHVLKNRRLTWEYCDVPSCSTCGLRQYSQPQFRIKGGLFADIASHPWQAAIFAKHRRSPGERFLCGGILISSCWILSAAHCFQERFPPHHLTVILGRTYRVVPGEEEQKFEVEKYIVHKEFDDDTYDNDIALLQLKSDSSRCAQESSVVRTVCLPPADLQLPDWTECELSGYGKHEALSPFYSERLKEAHVRLYPSSRCTSQHLLNRTVTDNMLCAGDTRSGGPQANLHDACQGDSGGPLVCLNDGRMTLVGIISWGLGCGQKDVPGVYTKVTNYLDWIRDNMRP
B2: human plasmin (protein)
chain: KVYLSECKTGNGKNYRGTMSKTKNGITCQKWSSTSPHRPRFSPATHPSEGLEENYCRNPDNDPQGPWCYTTDPEKRYDYCDILECEEECMHCSGENYDGKISKTMSGLECQAWDSQSPHAHGYIPSKFPNKNLKKNYCRNPDRELRPWCFTTDPNKRWELCDIPRCTTPPPSSGPTYQCLKGTGENYRGNVAVTVSGHTCQHWSAQTPHTHNRTPENFPCKNLDENYCRNPDGKRAPWCHTTNSQVRWEYCKIPSCDSSPVSTEQLAPTAPPELTPVVQDCYHGDGQSYRGTSSTTTTGKKCQSWSSMTPHRHQKTPENYPNAGLTMNYCRNPDADKGPWCFTTDPSVRWEYCNLKKCSGTEASVVAPPPVVLLPDVETPSEEDCMFGNGKGYRGKRATTVTGTPCQDWAAQEPHRHSIFTPETNPRAGLEKNYCRNPDGDVGGPWCYTTNPRKLYDYCDVPQCAAPSFDCGKPQVEPKKCPGRVVGGCVAHPHSWPWQVSLRTRFGMHFCGGTLISPEWVLTAAHCLEKSPRPSSYKVILGAHQEVNLEPHVQEIEVSRLFLEPTRKDIALLKLSSPAVITDKVIPACLPSPNYVVADRTECFITGWGETQGTFGAGLLKEAQLPVIENKVCNRYEFLNGRVQSTELCAGHLAGGTDSCQGDSGGPLVCFEKDKYILQGVTSWGLGCARPNKPGVYVRVSRFVTWIEGVMRNN
B3: bovine activated protein C (protein)
chain: ANSFLEELRPGNVERECSEEVCEFEEAREIFQNTEDTMAFWSFYSDGDQCEDRPSGSPCDLPCCGRGKCIDGLGGFRCDCAEGWEGRFCLHEVRFSNCSAENGGCAHYCMEEEGRRHCSCAPGYRLEDDHQLCVSKVTFPCGRLGKRMEKKRKTLKRDTNQVDQKDQLDPRIVDGQEAGWGESPWQAVLLDSKKKLVCGAVLIHVSWVLTVAHCLDSRKKLIVRLGEYDMRRWESWEVDLDIKEVIIHPNYTKSTSDNDIALLRLAKPATLSQTIVPICLPDSGLSERKLTQVGQETVVTGWGYRDETKRNRTFVLSFIKVPVVPYNACVHAMENKISENMLCAGILGDPRDACEGDSGGPMVTFFRGTWFLVGLVSWGEGCGRLYNYGVYTKVSRYLDWIYGHIKAQEAPLESQVP
B4: human leukocyte elastase (protein)
chain: IVGGRRARPHAWPFMVSLQLRGGHFCGATLIAPNFVMSAAHCVANVNVRAVRVVLGAHNLSRREPTRQVFAVQRIFENGYDPVNLLNDIVILQLNGSATINANVQVAQLPAQGRRLGNGVQCLAMGWGLLGRNRGIASVLQELNVTVVTSLCRRSNVCTLVRGRQAGVCFGDSGSPLVCNGLIHGIASFVRGGCASGLYPDAFAPVAQFVNWIDSIIQ

How the values were obtained:
[1] = target: GPAR4^R47S activation site mutant fusion protein
[2] = target: galactosidase-PAR4 (GPAR4) fusion protein
[3] = target: galactosidase-PAR3 (GPAR3) fusion protein
[4] = target: GPAR3^K37S activation site mutant fusion protein
[5] = target: activation site mutant fusion protein GPAR1^R45S
[6] = target: GPAR2^R34S activation site mutant fusion protein
[7] = target: galactosidase-PAR2 (GPAR2) fusion protein
[8] = target: galactosidase-PAR1 (GPAR1) fusion protein [β-galactosidase: P00722]
Sequence of galactosidase-PAR1 (GPAR1) fusion protein [β-galactosidase: P00722] (P00722 whole entry, chain 1 of 2, the tested form may be a part): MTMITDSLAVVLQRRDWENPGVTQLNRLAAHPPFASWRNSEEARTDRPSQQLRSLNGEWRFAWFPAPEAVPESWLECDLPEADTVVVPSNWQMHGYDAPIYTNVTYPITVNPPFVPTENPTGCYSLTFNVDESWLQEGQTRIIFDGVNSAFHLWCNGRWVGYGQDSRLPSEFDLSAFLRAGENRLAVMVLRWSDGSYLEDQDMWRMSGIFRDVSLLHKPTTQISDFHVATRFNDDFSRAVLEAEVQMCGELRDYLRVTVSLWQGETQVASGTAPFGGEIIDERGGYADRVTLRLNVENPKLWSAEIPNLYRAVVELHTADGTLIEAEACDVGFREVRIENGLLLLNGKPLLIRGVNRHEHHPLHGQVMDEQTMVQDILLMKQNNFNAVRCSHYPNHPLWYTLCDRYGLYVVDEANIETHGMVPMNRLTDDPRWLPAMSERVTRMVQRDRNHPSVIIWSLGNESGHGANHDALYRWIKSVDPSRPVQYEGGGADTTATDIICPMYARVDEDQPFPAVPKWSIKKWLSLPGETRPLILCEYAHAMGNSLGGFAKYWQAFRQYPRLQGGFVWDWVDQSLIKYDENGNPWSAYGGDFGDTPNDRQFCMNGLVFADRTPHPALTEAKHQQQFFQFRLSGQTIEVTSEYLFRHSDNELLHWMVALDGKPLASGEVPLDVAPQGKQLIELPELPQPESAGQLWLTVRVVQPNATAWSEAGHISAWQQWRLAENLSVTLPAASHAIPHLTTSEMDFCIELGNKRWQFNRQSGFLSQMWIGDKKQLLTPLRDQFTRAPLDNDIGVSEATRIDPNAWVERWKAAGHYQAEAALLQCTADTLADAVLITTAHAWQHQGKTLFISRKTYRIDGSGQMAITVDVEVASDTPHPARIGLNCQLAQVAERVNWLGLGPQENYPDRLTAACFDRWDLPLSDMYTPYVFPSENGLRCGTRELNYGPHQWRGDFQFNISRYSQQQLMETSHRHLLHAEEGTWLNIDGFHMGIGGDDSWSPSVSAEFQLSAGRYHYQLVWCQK
Sequence of galactosidase-PAR1 (GPAR1) fusion protein [β-galactosidase: P00722] (chain, as listed by the source, chain 2 of 2): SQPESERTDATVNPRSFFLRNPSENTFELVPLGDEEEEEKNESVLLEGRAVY

Sequence of GPAR4^R47S activation site mutant fusion protein (chain, as listed by the source R47S, chain 1 of 2): as the sequence (P00722 whole entry, chain 1 of 2, the tested form may be a part) above, with R47S counted along it
Sequence of GPAR4^R47S activation site mutant fusion protein (chain, as listed by the source R47S, chain 2 of 2): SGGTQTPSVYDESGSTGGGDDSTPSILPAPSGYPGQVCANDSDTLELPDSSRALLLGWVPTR
Sequence of galactosidase-PAR2 (GPAR2) fusion protein (chain, as listed by the source, chain 1 of 2): as the sequence (P00722 whole entry, chain 1 of 2, the tested form may be a part) above
Sequence of galactosidase-PAR2 (GPAR2) fusion protein (chain, as listed by the source, chain 2 of 2): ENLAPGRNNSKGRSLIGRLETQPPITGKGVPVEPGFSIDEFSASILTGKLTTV
Sequence of galactosidase-PAR3 (GPAR3) fusion protein (chain, as listed by the source, chain 1 of 2): as the sequence (P00722 whole entry, chain 1 of 2, the tested form may be a part) above
Sequence of galactosidase-PAR3 (GPAR3) fusion protein (chain, as listed by the source, chain 2 of 2): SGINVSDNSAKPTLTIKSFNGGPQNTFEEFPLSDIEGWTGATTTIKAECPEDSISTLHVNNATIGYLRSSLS
Sequence of galactosidase-PAR4 (GPAR4) fusion protein (chain, as listed by the source, chain 1 of 2): as the sequence (P00722 whole entry, chain 1 of 2, the tested form may be a part) above
Sequence of galactosidase-PAR4 (GPAR4) fusion protein (chain, as listed by the source, chain 2 of 2): as the sequence (chain, as listed by the source R47S, chain 2 of 2) above, with S31R counted along it

Protein	β-Galactosidase release rate (mmol β-Galactosidase/(molProtease * min)) [1]	β-Galactosidase release rate (mmol β-Galactosidase/(molProtease * min)) [2]	β-Galactosidase release rate (mmol β-Galactosidase/(molProtease * min)) [3]	β-Galactosidase release rate (mmol β-Galactosidase/(molProtease * min)) [4]	β-Galactosidase release rate (mmol β-Galactosidase/(molProtease * min)) [5]	β-Galactosidase release rate (mmol β-Galactosidase/(molProtease * min)) [6]	β-Galactosidase release rate (mmol β-Galactosidase/(molProtease * min)) [7]	β-Galactosidase release rate (mmol β-Galactosidase/(molProtease * min)) [8]	activity on GPAR3, against thrombin [3]	cleavage efficiency, against GPAR2^R34S [7]	cleavage rate, against trypsin [7]	β-Galactosidase release rate (determined in the presence of hirudin) [3]	β-Galactosidase release rate (determined in the presence of hirudin) [8]
B1	≤ 0.01	≤ 0.01	0.03	≤ 0.01	≤ 0.01	≤ 0.01	≤ 0.01	≤ 0.01	–	–	–	–	–
B2	0.26	0.48	0.34	0.16	0.29	0.35	0.67	4.1	about 120 times less active than thrombin	Plasmin cleaved GPAR2 two times more efficiently than GPAR2^R34S	only at a 560 fold lower rate than trypsin	–	–
B3	≤ 0.01	≤ 0.01	–	≤ 0.01	≤ 0.01	≤ 0.01	≤ 0.01	–	–	–	–	≦1 * 10^-2 a	≦1 * 10^-2 a
B4	11	12	50	93	140	16	24	78	–	–	–	–	–
